Here are results for 10 molecules from patent US20230322953A1 (HARBOUR BIOMED SHANGHAI, published 2023).

“And” between values parts separate entries of the source, which are not always exact repeats. Equal entries are not always repeated.

The EC50 is the concentration needed to bring the measured effect to its halfway point.

T1: human BCMA (human, UniProt Q02223 1-184)
T1 construct: whole, on cells; also called hBCMA; TNFRSF17
T1 sequence (looked up): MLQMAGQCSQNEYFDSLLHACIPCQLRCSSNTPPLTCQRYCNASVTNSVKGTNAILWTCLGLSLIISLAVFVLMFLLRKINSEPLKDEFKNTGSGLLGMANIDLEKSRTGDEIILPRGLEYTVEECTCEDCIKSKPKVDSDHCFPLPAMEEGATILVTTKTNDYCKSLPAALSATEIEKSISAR

B1: PR002309 (bispecific antibody, human IgG1, lambda, L234A L235A)
light: QAVVTQEPSLTVSPGGTVTLTCRSSTGAVTTSNYANWVQQKPGQAPRGLIGGTNKRAPWTPARFSGSLLGDKAALTLLGAQPEDEAEYFCALWYSNLWVFGGGTKLTVLGQPKAAPSVTLFPPSSEELQANKATLVCLISDFYPGAVTVAWKADSSPVKAGVETTTPSKQSNNKYAASSYLSLTPEQWKSHRSYSCQVTHEGSTVEKTVAPTECS
heavy: EVQLLESGGGLVQPGGSLRLSCAASGFTFSTYAMNWVRQAPGKGLEWVSRIRSKYNNYATYYADSVKDRFTISRDDSKSTLYLQMNSLRAEDTAVYYCVRHGNFGNSYVSWFAYWGQGTLVTVSSASTKGPSVFPLAPSSKSTSGGTAALGCLVKDYFPEPVTVSWNSGALTSGVHTFPAVLQSSGLYSLSSVVTVPSSSLGTQTYICNVNHKPSNTKVDKKVEPKSCDKTHTCPPCPAPEAAGGPSVFLFPPKPKDTLMISRTPEVTCVVVDVSHEDPEVKFNWYVDGVEVHNAKTKPREEQYNSTYRVVSVLTVLHQDWLNGKEYKCKVSNKALGAPIEKTISKAKGQPREPQVYTLPPCREEMTKNQVSLWCLVKGFYPSDIAVEWESNGQPENNYKTTPPVLDSDGSFFLYSKLTVDKSRWQQGNVFSCSVMHEALHNHYTQKSLSLSPGK
chain: EVQLVETGGGLIQPGGSLRLSCAASGFTVSDNYMTWVRQAPGKGLEWVSVIFSGGNTYYADSVKGRFTISRDNAKNTLYLQMNSLRAEDTALYYCARRNYDDTRGTDVFDIWGQGTMVTVSSRTGGGGSGGGGSGGGGSKLEVQLVETGGGLIQPGGSLRLSCAASGFTVSDNYMTWVRQAPGKGLEWVSVIFSGGNTYYADSVKGRFTISRDNAKNTLYLQMNSLRAEDTALYYCARRNYDDTRGTDVFDIWGQGTMVTVSSASEPKSSDKTHTCPPCPAPEAAGGPSVFLFPPKPKDTLMISRTPEVTCVVVDVSHEDPEVKFNWYVDGVEVHNAKTKPREEQYNSTYRVVSVLTVLHQDWLNGKEYKCKVSNKALGAPIEKTISKAKGQPREPQVCTLPPSREEMTKNQVSLSCAVKGFYPSDIAVEWESNGQPENNYKTTPPVLDSDGSFFLVSKLTVDKSRWQQGNVFSCSVMHEALHNHYTQKSLSLSPGK
B2: PR002895 (bispecific antibody, human IgG1, lambda, L234A L235A)
light: B1 light
heavy: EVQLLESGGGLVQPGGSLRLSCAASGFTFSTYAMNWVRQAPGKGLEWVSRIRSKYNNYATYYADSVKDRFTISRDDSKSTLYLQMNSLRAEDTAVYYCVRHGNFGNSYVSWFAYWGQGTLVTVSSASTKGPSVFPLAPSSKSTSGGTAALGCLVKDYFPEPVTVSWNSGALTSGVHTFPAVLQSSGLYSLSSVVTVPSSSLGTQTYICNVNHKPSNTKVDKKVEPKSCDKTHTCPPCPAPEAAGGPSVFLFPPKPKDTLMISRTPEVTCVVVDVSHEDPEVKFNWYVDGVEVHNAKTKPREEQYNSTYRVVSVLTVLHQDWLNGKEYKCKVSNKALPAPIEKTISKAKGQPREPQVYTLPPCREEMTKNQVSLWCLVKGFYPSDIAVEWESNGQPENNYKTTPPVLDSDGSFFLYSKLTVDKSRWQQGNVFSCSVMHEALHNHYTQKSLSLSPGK
chain: EVQLVETGGGLIQPGGSLRLSCAASGFTVSDNYMTWVRQAPGKGLEWVSVIFSGGNTYYADSVKGRFTISRDNAKNTLYLQMNSLRAEDTALYYCARRNYDDTRGTDVFDIWGQGTMVTVSSGGGGSGGGGSGGGGSEVQLVETGGGLIQPGGSLRLSCAASGFTVSDNYMTWVRQAPGKGLEWVSVIFSGGNTYYADSVKGRFTISRDNAKNTLYLQMNSLRAEDTALYYCARRNYDDTRGTDVFDIWGQGTMVTVSSASEPKSSDKTHTCPPCPAPEAAGGPSVFLFPPKPKDTLMISRTPEVTCVVVDVSHEDPEVKFNWYVDGVEVHNAKTKPREEQYNSTYRVVSVLTVLHQDWLNGKEYKCKVSNKALPAPIEKTISKAKGQPREPQVCTLPPSREEMTKNQVSLSCAVKGFYPSDIAVEWESNGQPENNYKTTPPVLDSDGSFFLVSKLTVDKSRWQQGNVFSCSVMHEALHNHYTQKSLSLSPGK
B3: PR002953 (bispecific antibody, human IgG1, lambda, L234A L235A)
light: B1 light
heavy: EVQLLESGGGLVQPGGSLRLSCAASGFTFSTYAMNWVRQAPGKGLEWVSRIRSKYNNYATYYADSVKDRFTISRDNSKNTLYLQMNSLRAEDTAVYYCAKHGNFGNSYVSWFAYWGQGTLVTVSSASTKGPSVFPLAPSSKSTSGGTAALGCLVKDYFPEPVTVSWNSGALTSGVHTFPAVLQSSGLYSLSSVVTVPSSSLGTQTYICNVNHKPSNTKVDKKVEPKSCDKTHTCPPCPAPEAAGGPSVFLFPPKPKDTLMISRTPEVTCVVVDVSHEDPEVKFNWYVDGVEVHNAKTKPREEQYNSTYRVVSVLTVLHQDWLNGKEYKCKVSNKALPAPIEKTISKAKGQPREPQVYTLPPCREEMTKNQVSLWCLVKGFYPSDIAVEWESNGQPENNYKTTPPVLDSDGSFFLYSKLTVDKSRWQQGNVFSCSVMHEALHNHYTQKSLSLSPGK
chain: B2 chain
B4: PR002959 (bispecific antibody, human IgG1, lambda, L234A L235A)
light: B1 light
heavy: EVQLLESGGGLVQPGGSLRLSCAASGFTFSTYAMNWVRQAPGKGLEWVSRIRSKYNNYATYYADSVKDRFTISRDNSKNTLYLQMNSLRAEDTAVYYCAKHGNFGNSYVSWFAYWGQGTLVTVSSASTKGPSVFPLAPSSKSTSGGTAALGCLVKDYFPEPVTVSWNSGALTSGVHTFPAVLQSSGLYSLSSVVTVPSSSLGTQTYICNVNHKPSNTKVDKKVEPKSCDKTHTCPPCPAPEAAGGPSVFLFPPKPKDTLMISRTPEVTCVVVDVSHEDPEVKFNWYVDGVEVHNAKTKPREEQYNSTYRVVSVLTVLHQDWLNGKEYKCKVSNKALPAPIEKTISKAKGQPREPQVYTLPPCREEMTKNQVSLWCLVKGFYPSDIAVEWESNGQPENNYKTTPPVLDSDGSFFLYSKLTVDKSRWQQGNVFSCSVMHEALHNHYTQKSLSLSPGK
chain: EVQLVETGGGLIQPGGSLRLSCAASGFTVSDNYMTWVRQAPGKGLEWVSVIFSGGNTYYADSVKGRFTISRDNAKNTLYLQMNSLRAEDTALYYCARRNYDDTRGTDVFDIWGQGTMVTVSSGSGSEVQLVETGGGLIQPGGSLRLSCAASGFTVSDNYMTWVRQAPGKGLEWVSVIFSGGNTYYADSVKGRFTISRDNAKNTLYLQMNSLRAEDTALYYCARRNYDDTRGTDVFDIWGQGTMVTVSSASEPKSSDKTHTCPPCPAPEAAGGPSVFLFPPKPKDTLMISRTPEVTCVVVDVSHEDPEVKFNWYVDGVEVHNAKTKPREEQYNSTYRVVSVLTVLHQDWLNGKEYKCKVSNKALPAPIEKTISKAKGQPREPQVCTLPPSREEMTKNQVSLSCAVKGFYPSDIAVEWESNGQPENNYKTTPPVLDSDGSFFLVSKLTVDKSRWQQGNVFSCSVMHEALHNHYTQKSLSLSPGK
B5: PR002199 (bispecific antibody, human IgG1, kappa, L234A L235A)
chain 1: not shown
chain 2: EVQLVESGGGLVQPGRSLRLSCAASGFTFDDYAMHWVRQAPGKGLEWVSGISWNSGSIGYADSVKGRFTISRDNAKNSLYLQMNSLRAEDTALYYCAKDSRGYGDYRLGGAYWGQGTLVTVSSASTKGPSVFPLAPSSKSTSGGTAALGCLVKDYFPEPVTVSWNSGALTSGVHTFPAVLQSSGLYSLSSVVTVPSSSLGTQTYICNVNHKPSNTKVDKKVEPKSCDKTHTCPPCPAPEAAGGPSVFLFPPKPKDTLMISRTPEVTCVVVDVSHEDPEVKFNWYVDGVEVHNAKTKPREEQYNSTYRVVSVLTVLHQDWLNGKEYKCKVSNKALGAPIEKTISKAKGQPREPQVYTLPPCREEMTKNQVSLWCLVKGFYPSDIAVEWESNGQPENNYKTTPPVLDSDGSFFLYSKLTVDKSRWQQGNVFSCSVMHEALHNHYTQKSLSLSPGK
chain 3: EVQLLESGGGLVQPGGSLRLSCAASGFTVSSYGMSWVRQAPGKGPEWVSGIRGSDGSTYYADSVKGRFTISRDNSKNTLYLQMNSLRAEDTAVYYCAKQGENDGPFDHRGQGTLVTVSSGGGGSEVQLLESGGGLVQPGGSLRLSCAASGFTVSSYGMSWVRQAPGKGPEWVSGIRGSDGSTYYADSVKGRFTISRDNSKNTLYLQMNSLRAEDTAVYYCAKQGENDGPFDHRGQGTLVTVSSASEPKSSDKTHTCPPCPAPEAAGGPSVFLFPPKPKDTLMISRTPEVTCVVVDVSHEDPEVKFNWYVDGVEVHNAKTKPREEQYNSTYRVVSVLTVLHQDWLNGKEYKCKVSNKALGAPIEKTISKAKGQPREPQVCTLPPSREEMTKNQVSLSCAVKGFYPSDIAVEWESNGQPENNYKTTPPVLDSDGSFFLVSKLTVDKSRWQQGNVFSCSVMHEALHNHYTQKSLSLSPGK
notes: also called Positive control 2
B6: Anti-4-1BB heavy-chain antibody 1016P0020G4, hIgG1 (antibody, V domains shown)
VH: EVQLLESGGGLVQPGGSLRLSCAASGFIFSNFAMTWVRQPPEKGLKWVSSINGSGFNTYYTDSVKGRFTISRDNSRNTLYLQMNRLTAEDTAVYFCAKEGSSETDDHYYNVDVWGQGTTVTVSS
notes: HCAb (heavy chain dimer, no light chain), hIgG1 Fc; also called PR001836
B7: Anti-4-1BB heavy-chain antibody 1016P0042C5, hIgG1 (antibody, V domains shown)
VH: EVQLLESGGGLVQPGGSLRLSCAASGFTFSNYAMTWVRQPPGKGLEWVSSISGSGGSTYYADSVKGRFTISRDNSKNTLYLQMNSLRAEDTAVYYCAKEGTGTTSDYYYNVDVWGQGTTVTVSS
notes: HCAb (heavy chain dimer, no light chain), hIgG1 Fc; also called PR001771
B8: Anti-4-1BB heavy-chain antibody 1016P0010B11, hIgG1 (antibody, V domains shown)
VH: EVQLLESGGGLVQLGGSLRLSCAASGFTFSRYAMTWVRQAPEKGLEWVSSISGSGDDTYYGDSVKGRFTISRDNSQNTVYLQMNSLRAEDTAVYFCAKEKAGTTGDYYYNVDVWGQGTTVTVSS
notes: HCAb (heavy chain dimer, no light chain), hIgG1 Fc; also called PR001758
B9: Anti-4-1BB heavy-chain antibody PR001838_G53A, hIgG1 (antibody, V domains shown)
VH: EVQLLESGGGLVQPGGSLRLSCAASGFTFSNYAMSWFRQPPETGLKWVSSIDASGGDTYYADSVKGRFTISRDNSKNTLYLQMNSLRAEDTAVYYCAKEGSHGTDDSHYDVDVWGQGTTVTVSS
notes: HCAb (heavy chain dimer, no light chain), hIgG1 Fc; also called PR004469
B10: Anti-4-1BB heavy-chain antibody 1016P0037D2, hIgG1 (antibody, V domains shown)
VH: EVQLVESGGGLVQPGGSLRLSCAASGFTFSSYWMHWVRQAPGKGLVWVSRINSDGSSTSYADSVQGRFTISRDNAKNTLYLQMNSLRAEDTAVYYCVRKGSSSYYHYSIEDDWGQGTLVTVSS
notes: HCAb (heavy chain dimer, no light chain), hIgG1 Fc; also called PR001840

One assay deals with T1, human BCMA. In words: FACS on NCI-H929 cells.
Regarding B1, the concentration giving a half-maximal response (EC50) was 1.73 nM and 1.34 nM.

On to B2, for which the 50% effective concentration (EC50) was 1.53 nM and 2.01 nM.

Consider B3, for which the EC50 was 1.34 nM and 2.91 nM.

Consider B4, for which it took 4.3 nM to reach a half-maximal effect (EC50) and the “Maximum MFI” value is 4210.

For B5, the half-maximal effective concentration (EC50) turned out to be 4.29 nM and the “Maximum MFI” value worked out at 88200.

The target in the next assay is T2, cynomolgus monkey BCMA (cynomolgus monkey, UniProt A0A2K5UD97 1-183).
T2 construct: whole, on cells; also called cyno BCMA
T2 sequence (A0A2K5UD97 entry or part of it): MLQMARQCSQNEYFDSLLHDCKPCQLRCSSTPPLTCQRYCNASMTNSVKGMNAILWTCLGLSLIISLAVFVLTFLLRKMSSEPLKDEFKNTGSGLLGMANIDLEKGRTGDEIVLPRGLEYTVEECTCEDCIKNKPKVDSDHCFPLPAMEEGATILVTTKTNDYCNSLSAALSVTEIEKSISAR
As to the kind of experiment: FACS on HEK293T/cyno BCMA cells.
Regarding B4, the “Maximum MFI” value came to 30600.

A further assay deals with T1, human BCMA. In words: FACS on HEK293T/hBCMA cells, Experiment 2.
With B1, it took 0.355 nM to reach a half-maximal effect (EC50) and the “Maximum MFI” value was found to be 15000.

Consider B2, for which the concentration for a half-maximal effect (EC50) was determined as 0.385 nM and the “Maximum MFI” value stood at 14000.

On to B3, for which the “Maximum MFI” value is 25200.

Regarding B4, the “Maximum MFI” value was found to be 23900.

For B5, the concentration giving a half-maximal response (EC50) stood at 1.13 nM and the “Maximum MFI” value stood at 17000.

In another assay the target is T1, human BCMA. In words: FACS on HEK293T/hBCMA cells, Experiment 3.
B1: the half-maximal effective concentration (EC50) is 0.259 nM and the “Maximum MFI” value was 100000.

B2: the response was half-maximal at 0.183 nM (EC50) and the “Maximum MFI” value was 93200.

Consider B3, for which the midpoint of the response, the EC50, lay at 0.226 nM and the “Maximum MFI” value came to 91600.

For B5, a half-maximal response (EC50) required 0.602 nM and the “Maximum MFI” value was found to be 117000.

In another assay the target is T3, human 4-1BB (tumor necrosis factor receptor superfamily member 9) (human, UniProt Q07011 24-255).
T3 construct: whole, on cells; also called hu 4-1BB; CD137
T3 sequence (Q07011 24-255): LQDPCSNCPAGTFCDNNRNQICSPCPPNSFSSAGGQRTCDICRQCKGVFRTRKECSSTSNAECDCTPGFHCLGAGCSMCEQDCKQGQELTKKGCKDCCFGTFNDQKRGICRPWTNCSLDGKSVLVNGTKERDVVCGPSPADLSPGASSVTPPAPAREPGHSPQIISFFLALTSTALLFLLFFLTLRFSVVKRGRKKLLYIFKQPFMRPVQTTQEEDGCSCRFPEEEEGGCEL
As to the kind of experiment: flow cytometry (FACS) on CHO-K1/hu 4-1BB cells.
As for B6, a half-maximal effect (EC50) was put at 0.28 nM and the “Maximum MFI” value was determined as 1830 MFI.

For the molecule B7, a half-maximal response (EC50) required 0.532 nM and the “Maximum MFI” value was 1720 MFI.

In the case of B8, the 50% effective concentration (EC50) was determined as 0.212 nM and the “Maximum MFI” value came to 1640 MFI.

With B9, the 50% effective concentration (EC50) worked out at 1.29 nM and the “Maximum MFI” value was determined as 109000 MFI.

Consider B10, for which the EC50 turned out to be 0.43 nM and the “Maximum MFI” value stood at 1790 MFI.
